The data set deals with the molecule itself. Nature of the data set: crystal structure; ZAN/U:GSH crystals, hanging drops at 22°C, 30% PEG 6000, 0.1 M Bis-Tris pH 6.5, 1 mM β-ME; soaked with DDE (not seen in the maps); 2.3 Å; two biological dimers in the asymmetric unit.

The term stoichiometry N denotes a count of units in the complex or per binding partner.

B1: GSTE2 ZAN/U variant (epsilon-class glutathione-S-transferase GSTE2 of Anopheles gambiae, allele ZAN/U 1C) (enzyme, UniProt Q7PVS6 1-221, looked up)
chain: MSNLVLYTLHLSPPCRAVELTAKALGLELEQKTINLLTGDHLKPEFVKLNPQHTIPVLDDNGTIITESHAIMIYLVTKYGKDDSLYPKDPVKQARVNSALHFESGVLFARMRFTFERILFFGKSDIPEDRVEYVQKSYELLEDTLVDDFVAGPTMTIADFSCISTISSIMGVVPLEQSKHPRIYAWIDRLKQLPYYEEANGGGGTDLGKFVLAKKEENAKA
notes: Cloned from full-length cDNA; the model runs to Ala221; One of GenBank JX840597-JX840599; Crystallised as the complex with glutathione (GSH, 1:1.2 molar ratio); biological dimer; Natural allelic variant; I114T is written against the Kisumu (ancestral) allele; also called Gste2-114T; ZAN/U:GSH; not shown: His6, N-terminal, cleaved; SUMO, N-terminal, cleaved
Regarding B1, the “stoichiometry N” value amounted to 2.

The record behind these values is publication PMC3968025, “Metabolic and Target-Site Mechanisms Combine to Confer Strong DDT Resistance in Anopheles gambiae” (PLoS ONE, 2014).
